Substitutions are numbered along the chain they refer to. Blank lines part the entries; values can stand above or below the binder they belong to.
Experiments:
[1] = molecular target: T1, human IL-11 (Invigate, e.g., lot #C121021-19) (human, UniProt P20809 22-199); assay: Tri-complex ELISA: antibody titrated against 8 nM human IL-11, 2 nM human gp130-human-Fc and 2 nM murine IL11RA-murine-Fc
T1 construct: Bought protein; also called hIL-11; hIL11
T1 sequence: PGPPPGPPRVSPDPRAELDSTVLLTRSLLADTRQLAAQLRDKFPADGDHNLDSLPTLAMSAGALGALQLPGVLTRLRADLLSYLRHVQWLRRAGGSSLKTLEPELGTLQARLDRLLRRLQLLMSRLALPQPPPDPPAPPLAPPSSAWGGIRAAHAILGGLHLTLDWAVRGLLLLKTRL
Experimental: In the Tri-complex ELISA format IL-11 antibodies are tested for their ability to inhibit the formation of a complex consisting of murine or human gp130-Fc fusion protein, with murine or human IL-11, and a murine IL11RA-Fc fusion protein. The assay format was adapted according to FIG. 18 (a, b), depending on whether murine or human IL-11 IgG antibodies were tested.
The assay was performed using High Binding microtiter plates (Greiner, #781077). In a first step, 25 μl of goat anti human IgG (Sigma, #12136), diluted 1:1000 in coating buffer (Candor, #121125) was coated on the plate at 4° C. overnight. Next day, the plate was washed one time with 50 μl PBST and then blocked with 50 μl SmartBlock (Candor, #113125) for one hour at room temperature (RT). […] After three additional washes of the coated and blocked microtiter plate with PBS-T, 25 μl of each mixture were added and the assay plate was incubated for one hour at room temperature. After three additional washes, anti-mouse-gp130 biotinylated antibody (R&D, #BAF468) or anti-human gp130 biotinylated antibody (R&D, #BAF228), both 1:1000 in 10% SmartBlock PBS-T, was added and incubated for 1 hour at RT. After three additional washes, a Streptavidin-Peroxidase conjugate (Sigma, #S5512) 1:1000 in SmartBlock PBS-T was added and incubated for one hour at room temperature. After a final three washes, AmplexRed (Fisher Scientific, A12222), 1/1000 in PBS, 0,003% H₂O₂, was added as substrate and incubated for 15 min at RT in the dark. Then, the fluorescence was measured with a plate reader at 535/595 nm. Signals from dose responses were used to calculate IC50 values using GraphPad Prism software.

[2] = molecular target: T2, human IL2Ra (Peprotech, Germany, #200-02RC) (human, UniProt P01589 22-240); assay: direct binding ELISA on coated IL2Ra
T2 construct: Coated on the ELISA plate; also called hIL2Ra; IL-2 receptor alpha
T2 sequence (looked up): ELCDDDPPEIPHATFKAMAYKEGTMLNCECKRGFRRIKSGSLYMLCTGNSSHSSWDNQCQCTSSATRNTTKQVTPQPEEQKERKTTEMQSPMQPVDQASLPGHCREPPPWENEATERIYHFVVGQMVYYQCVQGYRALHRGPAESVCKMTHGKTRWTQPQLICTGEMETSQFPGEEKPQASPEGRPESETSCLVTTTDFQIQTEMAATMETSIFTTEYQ

human IL2Ra [3] = molecular target: T3, human IL2Ra (human, UniProt P01589 22-240, limits assumed); assay: ELISA on coated IL2Ra, signal ratio to isotype control TPP-10159 at 3.3E-7 M antibody
T3 construct: coated on the ELISA plate; also called IL-2 receptor alpha
T3 sequence (looked up): T2 sequence (looked up)
Experimental: (§1) IL2RA (Peprotech, Germany, #200-02RC) was coated at 1 or 0 μg/ml (buffer only control) in 30 μl coating buffer (Candor, #113500) per well on a 384 well microtiter plate (Maxisorb, Nunc, #460518) over night at 4-8° C. After two washes with 50 μl/well washing buffer (PBS+0.05% Tween, pH 7.4), the plates were incubated for two hours at room temperature with 50 μl/well SmartBlock (Candor, #113500). After blocking, the plates were washed three times with washing buffer. Then, a dilution series of the respective antibody (1E-7 [M] down to 2E-13 [M]) in PBS+0.05% Tween, 10% SmartBlock were added in 30 μl to the microtiter plate and incubated for 90 min at room temperature. After three additional washes, 30 μl anti mouse IgG HRP-conjugated antibody (Biotechne, HAF007), diluted 1:1000 in PBS+0.05% Tween (pH 7.4), were added per well and incubated for one hour. After three additional washes, a mixture of Amplex red (Invitrogen, #12222, 10 mM stock solution in DMSO) 1:1000 diluted in PBS and H2O2 (30%, Merck, #107209)) diluted 1:10000 in PBS were added as substrate with 30 μl per well and incubated for 20 min in the dark. Relative fluorescence was measured with a microtiter plate reader at 535/590 nm.
IgG converted antibodies TPP-were tested for binding to IL2Ra as described in Example 20. The ratios of the signals obtained at an antibody concentration of 3.3E-7 [M] for IgG converted antibody versus the isotype control TPP-10159 were calculated and are shown in Table E22.

human IL2Ra [4] = molecular target: T3, human IL2Ra; assay: ELISA on coated IL2Ra, signal ratio to isotype control at 1E-07 M antibody
Experimental: as §1
Bispecific antibodies were subjected to the experimental assay procedure described in Example 20. Ratios of the signals generated at an antibody concentration of 1E-07 [M] by the respective bispecific antibody versus those of an isotype control antibody were calculated and are shown in Table E29. The bispecific antibodies show no binding to IL-2 Ra.

B1: TPP-18087 (antibody, mouse IgG1, V domains shown)
VH: EVQLLESGGGLVQPGGSLRLSCAASGFTFSHYDMNWLRQAPGKGLEWVGVISYDGSNKFYADFVKGRFTISRDNSKNTLYLQMNSLRAEDTAVYYCARTPGSHFDYWGQGTLVTVSS
VL: QSVLTQPPSASGTPGQRVTISCSGSSSNIGNNAVNWYQQLPGTAPKLLIYYDDLLPSGVPDRFSGSKSGTSASLAISGLRSEDEADYYCSAWDDSLNGVVFGGGTKLTVLG
notes: mIgG1, Lambda
Efficacy (%) [1]: 60.4% | IC50 [1]: 55 nM | binding result [2]: no binding (tested: 3.3E-7 [M] antibody)

B2: TPP-18087 (antibody, mouse IgG1, V domains shown)
VH: B1 VH
VL: B1 VL
notes: mIgG1, Lambda
Antibody/Isotype Control Ratio of IL-2Ra Binding Signals (human IL2Ra [3]): 0.6 ratio

B3: TPP-19528 (antibody, mouse IgG1, V domains shown)
VH: EVQLLESGGGLVQPGGSLRLSCAASGFTFSIYAMSWVRQAPGKGLEWVSSISDTGDRTYYADSVKGRFTISRDNSKNTLYLQMNSLRAEDTAVYYCARSNWGSLDYWGQGTLVTVSS
VL: B1 VL with N31S, A33Y, N35Y, S90A, N97S, V99R
notes: mIgG1, Lambda
Efficacy (%) [1]: 57% | IC50 [1]: 20 nM | binding result [2]: no binding (tested: 3.3E-7 [M] antibody)

B6: TPP-18068 (antibody, mouse IgG1)
heavy: EVQLLESGGGLVQPGGSLRLSCAASGFTFSSYGMHWVRQAPGKGLEWVSVISYDGSYKYYADSVKGRFTISRDNSKNTLYLQMNSLRAEDTAVYYCAAGVPDYWGQGTLVTVSSAKTTPPSVYPLAPGSAAQTNSMVTLGCLVKGYFPEPVTVTWNSGSLSSGVHTFPAVLQSDLYTLSSSVTVPSSTWPSETVTCNVAHPASSTKVDKKIVPRDCGCKPCICTVPEVSSVFIFPPKPKDVLTITLTPKVTCVVVDISKDDPEVQFSWFVDDVEVHTAQTQPREEQFNSTFRSVSELPIMHQDWLNGKEFKCRVNSAAFPAPIEKTISKTKGRPKAPQVYTIPPPKEQMAKDKVSLTCMITDFFPEDITVEWQWNGQPAENYKNTQPIMDTDGSYFVYSKLNVQKSNWEAGNTFTCSVLHEGLHNHHTEKSLSHSPGK
light: QSVLTQPPSASGTPGQRVTISCTGSSSNIGAGYDVHWYQQLPGTAPKLLIYSNNERPSGVPDRFSGSKSGTSASLAISGLRSEDEADYYCAAWDDSLNGPVFGGGTKLTVLGQPKSSPSVTLFPPSSEELETNKATLVCTITDFYPGVVTVDWKVDGTPVTQGMETTQPSKQSNNKYMASSYLTLTARAWERHSSYSCQVTHEGHTVEKSLSRADCS
notes: mIgG1, Lambda
Antibody/Isotype Control Ratio of IL-2Ra Binding Signals (human IL2Ra [3]): 377 ratio

Other lines, results leading:

Antibody/Isotype Control Ratio of IL-2Ra Binding Signals (human IL2Ra [3]): 0.7 ratio
B4: TPP-29519 (antibody, mouse IgG1)
heavy: QVQLVESGGGVVQPGRSLRLSCAASGFTFSHYDMHWVRQAPGKGLEWVAVISYHGSVKFYADSVKGRFTISRDNSKNTLYLQMNSLRAEDTAVYYCARTPGFHFDYWGQGTLVTVSSAKTTPPSVYPLAPGSAAQTNSMVTLGCLVKGYFPEPVTVTWNSGSLSSGVHTFPAVLQSDLYTLSSSVTVPSSTWPSETVTCNVAHPASSTKVDKKIVPRDCGCKPCICTVPEVSSVFIFPPKPKDVLTITLTPKVTCVVVDISKDDPEVQFSWFVDDVEVHTAQTQPREEQFNSTFRSVSELPIMHQDWLNGKEFKCRVNSAAFPAPIEKTISKTKGRPKAPQVYTIPPPKEQMAKDKVSLTCMITDFFPEDITVEWQWNGQPAENYKNTQPIMDTDGSYFVYSKLNVQKSNWEAGNTFTCSVLHEGLHNHHTEKSLSHSPGK
light: QSVLTQPPSASGTPGQRVTISCSGSSSNIGSNYVSWYQQLPGTAPKLLIYYDDLRPSGVPDRFSGSKSGTSASLAISGLRSEDEADYYCSAWDDSLSGVVFGGGTKLTVLGQPKSSPSVTLFPPSSEELETNKATLVCTITDFYPGVVTVDWKVDGTPVTQGMETTQPSKQSNNKYMASSYLTLTARAWERHSSYSCQVTHEGHTVEKSLSRADCS
notes: mIgG1, Lambda

Ratio IL-2Ra Binding Signal Antibody/Isotype Control (human IL2Ra [4]): 1.9 ratio
B5: TPP-29603 (bispecific antibody, IgG1)
chain 1: QVQLVESGGGVVQPGRSLRLSCAASGFTFSHYDMHWVRQAPGKGLEWVAVISYHGSVKFYADSVKGRFTISRDNSKNTLYLQMNSLRAEDTAVYYCARTPGFHFDYWGQGTLVTVSSGGGGSGGGGSGGGGSQSVLTQPPSASGTPGQRVTISCSGSSSNIGSNYVSWYQQLPGTAPKLLIYYDDLRPSGVPDRFSGSKSGTSASLAISGLRSEDEADYYCSAWDDSLSGVVFGGGTKLTVLGGGGSGGGGSGGGGSGVECPPCPAPPVAGPSVFIFPPKPKDVLTITLTPKVTCVVVDISKDDPEVQFSWFVDDVEVHTAQTQPREEQFNSTFRSVSELPIMHQDWLNGKEFKCRVNSAAFPAPIEKTISKTKGRPKAPQVYTIPPCKEQMAKDKVSLWCMITDFFPEDITVEWQWNGQPAENYKNTQPIMDTDGSYFVYSKLNVQKSNWEAGNTFTCSVLHEGLHNHHTEKSLSHSPGK
chain 2: EVQLLESGGGLVQPGGSLRLSCAASGFTFSSYGMHWVRQAPGKGLEWVAVISYDGSYKYYADSVKGRFTISRDNSKNTLYLQMNSLRAEDTAVYYCAAGVPDYWGQGTLVTVSSGGGGSGGGGSGGGGSQSVLTQPPSASGTPGQRVTISCSGSSSNIGSDYDVHWYQQLPGTAPKLLIYSNEERPSGVPDRFSGSKSGTSASLAISGLRSEDEADYYCSAWDSSLSGPVFGGGTKLTVLGGGGSGGGGSGGGGSGVECPPCPAPPVAGPSVFIFPPKPKDVLTITLTPKVTCVVVDISKDDPEVQFSWFVDDVEVHTAQTQPREEQFNSTFRSVSELPIMHQDWLNGKEFKCRVNSAAFPAPIEKTISKTKGRPKAPQVCTIPPPKEQMAKDKVSLSCAITDFFPEDITVEWQWNGQPAENYKNTQPIMDTDGSYFVVSKLNVQKSNWEAGNTFTCSVLHEGLHNHHTEKSLSHSPGK
notes: scFv-kih-mIgG1; bispecific comprising CDRs of TPP-29528 and TPP-29519

Antibody/Isotype Control Ratio of IL-2Ra Binding Signals (human IL2Ra [3]): 24.2 ratio
B7: TPP-29528 (antibody, mouse IgG1)
heavy: B6 heavy with S49A
light: B6 light with T23S, A31S, G32D, N54E, A91S, D95S, N98S
notes: mIgG1, Lambda
